According to the supplement of paper PMC5998384:

How the values were obtained:
[1] = tested on: HeLa Kyoto; assay: melting temperature (median over replicates), in situ; higher = more thermally stable
[2] = tested on: HeLa Kyoto; assay: solubility change mitosis vs G1/S (difference of NP-40 vs SDS log2 ratios) (log2 ratio difference); higher = more soluble in mitosis
[3] = tested on: HeLa Kyoto; assay: thermal stability score vs G1/S (z-score of summed log2 fold changes over temperatures); higher = more thermally stable than in G1/S
[4] = tested on: HeLa Kyoto; assay: solubility in G1/S (NP-40 vs SDS abundance) (log2 ratio); higher = more soluble; settings: cell cycle stage: G1/S
[5] = cell cycle stage: early G1 (4.5 h after nocodazole release)
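Throughout, for melting temperature (median over replicates), in situ: HeLa Kyoto cells synchronized by double thymidine or nocodazole block, proteins quantified by TMT10plex mass spectrometry, three independent biological replicates.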
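Throughout, for solubility change mitosis vs G1/S (difference of NP-40 vs SDS log2 ratios): synchronized HeLa Kyoto cells (double thymidine block for G1/S, nocodazole release for mitosis), protein amounts in NP-40 versus SDS lysates quantified by mass spectrometry, three biological replicates.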
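Throughout, for solubility in G1/S (NP-40 vs SDS abundance): HeLa Kyoto cells arrested at G1/S by double thymidine block, proteins quantified by TMT10plex mass spectrometry in mild NP-40 versus SDS extracts, three biological replicates.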
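Throughout, for thermal stability score vs G1/S (z-score of summed log2 fold changes over temperatures): synchronized HeLa Kyoto cells, proteins quantified by TMT10plex mass spectrometry, three biological replicates, mitosis taken 0.5 h after nocodazole release, G1/S directly after double thymidine block.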

Substance	melting temperature ([1]; cell cycle stage: G1/S) [°C]	melting temperature ([1]; cell cycle stage: mitosis) [°C]	solubility change mitosis (log2) [2]	thermal stability score [3, 5]	thermal stability score ([3]; cell cycle stage: mitosis)	solubility in G1/S (log2) [4]
MNIVVEFFVVTFKVLWAFVLAAARWLVRPKEKSVAGQVCLITGAGSGLGRLFALEFARRRALLVLWDINTQSNEETAGMVRHIYRDLEAADAAALQAGNGEEEILPHCNLQVFTYTCDVGKRENVYLTAERVRKEVGEVSVLVNNAGVVSGHHLLECPDELIERTMMVNCHAHFWTTKAFLPTMLEINHGHIVTVASSLGLFSTAGVEDYCASKFGVVGFHESLSHELKAAEKDGIKTTLVCPYLVDTGMFRGCRIRKEIEPFLPPLKPDYCVKQAMKAILTDQPMICTPRLMYIVTFMKSILPFEAVVCMYRFLGADKCMYPFIAQRKQATNNNEAKNGI [RDH10]	53.4	52.9	-0.104	-3.18	-3.77	-0.308
MNKKKKPFLGMPAPLGYVPGLGRGATGFTTRSDIGPARDANDPVDDRHAPPGKRTVGDQMKKNQAADDDDEDLNDTNYDEFNGYAGSLFSSGPYEKDDEEADAIYAALDKRMDERRKERREQREKEEIEKYRMERPKIQQQFSDLKRKLAEVTEEEWLSIPEVGDARNKRQRNPRYEKLTPVPDSFFAKHLQTGENHTSVDPRQTQFGGLNTPYPGGLNTPYPGGMTPGLMTPGTGELDMRKIGQARNTLMDMRLSQVSDSVSGQTVVDPKGYLTDLNSMIPTHGGDINDIKKARLLLKSVRETNPHHPPAWIASARLEEVTGKLQVARNLIMKGTEMCPKSEDVWLEAARLQPGDTAKAVVAQAVRHLPQSVRIYIRAAELETDIRAKKRVLRKALEHVPNSVRLWKAAVELEEPEDARIMLSRAVECCPTSVELWLALARLETYENARKVLNKARENIPTDRHIWITAAKLEEANGNTQMVEKIIDRAITSLRANGVEINREQWIQDAEECDRAGSVATCQAVMRAVIGIGIEEEDRKHTWMEDADSCVAHNALECARAIYAYALQVFPSKKSVWLRAAYFEKNHGTRESLEALLQRAVAHCPKAEVLWLMGAKSKWLAGDVPAARSILALAFQANPNSEEIWLAAVKLESENDEYERARRLLAKARSSAPTARVFMKSVKLEWVQDNIRAAQDLCEEALRHYEDFPKLWMMKGQIEEQKEMMEKAREAYNQGLKKCPHSTPLWLLLSRLEEKIGQLTRARAILEKSRLKNPKNPGLWLESVRLEYRAGLKNIANTLMAKALQECPNSGILWSEAIFLEARPQRRTKSVDALKKCEHDPHVLLAVAKLFWSQRKITKAREWFHRTVKIDSDLGDAWAFFYKFELQHGTEEQQEEVRKRCESAEPRHGELWCAVSKDIANWQKKIGDILRLVAGRIKNTF [PRPF6]	46.8	48.1	0.428	1.08	5.32	-0.849
MNLASQSGEAGAGQLLFANFNQDNTEVKGASRAAGLGRRAVVWSLAVGSKSGYKFFSLSSVDKLEQIYECTDTEDVCIVERLFSSSLVAIVSLKAPRKLKVCHFKKGTEICNYSYSNTILAVKLNRQRLIVCLEESLYIHNIRDMKVLHTIRETPPNPAGLCALSINNDNCYLAYPGSATIGEVQVFDTINLRAANMIPAHDSPLAALAFDASGTKLATASEKGTVIRVFSIPEGQKLFEFRRGVKRCVSICSLAFSMDGMFLSASSNTETVHIFKLETVKEKPPEEPTTWTGYFGKVLMASTSYLPSQVTEMFNQGRAFATVRLPFCGHKNICSLATIQKIPRLLVGAADGYLYMYNLDPQEGGECALMKQHRLDGSLETTNEILDSASHDCPLVTQTYGAAAGKGTYVPSSPTRLAYTDDLGAVGGACLEDEASALRLDEDSEHPPMILRTD [WIPI2]	50.4	51.1	-0.0675	-0.953	-0.659	0.0209
MNPAAEAEFNILLATDSYKVTHYKQYPPNTSKVYSYFECREKKTENSKLRKVKYEETVFYGLQYILNKYLKGKVVTKEKIQEAKDVYKEHFQDDVFNEKGWNYILEKYDGHLPIEIKAVPEGFVIPRGNVLFTVENTDPECYWLTNWIETILVQSWYPITVATNSREQKKILAKYLLETSGNLDGLEYKLHDFGYRGVSSQETAGIGASAHLVNFKGTDTVAGLALIKKYYGTKDPVPGYSVPAAEHSTITAWGKDHEKDAFEHIVTQFSSVPVSVVSDSYDIYNACEKIWGEDLRHLIVSRSTQAPLIIRPDSGNPLDTVLKVLEILGKKFPVTENSKGYKLLPPYLRVIQGDGVDINTLQEIVEGMKQKMWSIENIAFGSGGGLLQKLTRDLLNCSFKCSYVVTNGLGINVFKDPVADPNKRSKKGRLSLHRTPAGNFVTLEEGKGDLEEYGQDLLHTVFKNGKVTKSYSFDEIRKNAQLNIELEAAHH [NAMPT]	56.9	55.9	-0.0826	-1.65	-1.17	0.264
MNQKLLKLENLLRFHTIYRQLHSLCQRRALRQWRHGFSSAYPVWTAQLCAWPWPTDVLTGAALSQYRLLVTKKEEGPWKSQLSSTKSKKVVEVWIGMTIEELARAMEKNTDYVYEALLNTDIDIDSLEADSHLDEVWIKEVITKAGMKLKWSKLKQDKVRKNKDAVRRPQADPALLTPRSPVVTIMGHVDHGKTTLLDKFRKTQVAAVETGGITQHIGAFLVSLPSGEKITFLDTPGHAAFSAMRARGAQVTDIVVLVVAADDGVMKQTVESIQHAKDAQVPIILAVNKCDKAEADPEKVKKELLAYDVVCEDYGGDVQAVPVSALTGDNLMALAEATVALAEMLELKADPNGPVEGTVIESFTDKGRGLVTTAIIQRGTLRKGSVLVAGKCWAKVRLMFDENGKTIDEAYPSMPVGITGWRDLPSAGEEILEVESEPRAREVVDWRKYEQEQEKGQEDLKIIEEKRKEHKEAHQKAREKYGHLLWKKRSILRFLERKEQIPLKPKEKRERDSNVLSVIIKGDVDGSVEAILNIIDTYDASHECELELVHFGVGDVSANDVNLAETFDGVIYGFNVNAGNVIQQSAAKKGVKIKLHKIIYRLVEDLQEELSSRLPCAVEEHPVGEASILATFSVTEGKKKVPVAGCRVQKGQLEKQKKFKLTRNGHVIWKGSLTSLKHHKDDISIVKTGMDCGLSLDEDNMEFQVGDRIVCYEEKQIQAKTSWDPGF [MTIF2]	49.7	49.1	-0.0734	-0.325	0.122	-0.146
MNRSHRHGAGSGCLGTMEVKSKFGAEFRRFSLERSKPGKFEEFYGLLQHVHKIPNVDVLVGYADIHGDLLPINNDDNYHKAVSTANPLLRIFIQKKEEADYSAFGTDTLIKKKNVLTNVLRPDNHRKKPHIVISMPQDFRPVSSIIDVDILPETHRRVRLYKYGTEKPLGFYIRDGSSVRVTPHGLEKVPGIFISRLVPGGLAQSTGLLAVNDEVLEVNGIEVSGKSLDQVTDMMIANSRNLIITVRPANQRNNVVRNSRTSGSSGQSTDNSLLGYPQQIEPSFEPEDEDSEEDDIIIEDNGVPQQIPKAVPNTESLESLTQIELSFESGQNGFIPSNEVSLAAIASSSNTEFETHAPDQKLLEEDGTIITL [PARD6B]	51	–	0.0857	-0.366	-0.685	-0.226
MNVNQSVPPVPPFGQPQPIYPGYHQSSYGGQSGSTAPAIPYGAYNGPVPGYQQTPPQGMSRAPPSSGAPPASTAQAPCGQAAYGQFGQGDVQNGPSSTVQMQRLPGSQPFGSPLAPVGNQPPVLQPYGPPPTSAQVATQLSGMQISGAVAPAPPSSGLGFGPPTSLASASGSFPNSGLYGSYPQGQAPPLSQAQGHPGIQTPQRSAPSQASSFTPPASGGPRLPSMTGPLLPGQSFGGPSVSQPNHVSSPPQALPPGTQMTGPLGPLPPMHSPQQPGYQPQQNGSFGPARGPQSNYGGPYPAAPTFGSQPGPPQPLPPKRLDPDAIPSPIQVIEDDRNNRGTEPFVTGVRGQVPPLVTTNFLVKDQGNASPRYIRCTSYNIPCTSDMAKQAQVPLAAVIKPLARLPPEEASPYVVDHGESGPLRCNRCKAYMCPFMQFIEGGRRFQCCFCSCINDVPPQYFQHLDHTGKRVDAYDRPELSLGSYEFLATVDYCKNNKFPSPPAFIFMIDVSYNAIRTGLVRLLCEELKSLLDFLPREGGAEESAIRVGFVTYNKVLHFYNVKSSLAQPQMMVVSDVADMFVPLLDGFLVNVNESRAVITSLLDQIPEMFADTRETETVFVPVIQAGMEALKAAECAGKLFLFHTSLPIAEAPGKLKNRDDRKLINTDKEKTLFQPQTGAYQTLAKECVAQGCCVDLFLFPNQYVDVATLSVVPQLTGGSVYKYASFQVENDQERFLSDLRRDVQKVVGFDAVMRVRTSTGIRAVDFFGAFYMSNTTDVELAGLDGDKTVTVEFKHDDRLNEESGALLQCALLYTSCAGQRRLRIHNLALNCCTQLADLYRNCETDTLINYMAKFAYRGVLNSPVKAVRDTLITQCAQILACYRKNCASPSSAGQLILPECMKLLPVYLNCVLKSDVLQPGAEVTTDDRAYVRQLVTSMDVTETNVFFYPRLLPLTKSPVESTTEPPAVRASEERLSNGDIYLLENGLNLFLWVGASVQQGVVQSLFSVSSFSQITSGLSVLPVLDNPLSKKVRGLIDSLRAQRSRYMKLTVVKQEDKMEMLFKHFLVEDKSLSGGASYVDFLCHMHKEIRQLLS [SEC24C]	50.6	50.3	-0.121	1.19	1.53	0.0263
MNVVFAVKQYISKMIEDSGPGMKVLLMDKETTGIVSMVYTQSEILQKEVYLFERIDSQNREIMKHLKAICFLRPTKENVDYIIQELRRPKYTIYFIYFSNVISKSDVKSLAEADEQEVVAEVQEFYGDYIAVNPHLFSLNILGCCQGRNWDPAQLSRTTQGLTALLLSLKKCPMIRYQLSSEAAKRLAECVKQVITKEYELFEFRRTEVPPLLLILDRCDDAITPLLNQWTYQAMVHELLGINNNRIDLSRVPGISKDLREVVLSAENDEFYANNMYLNFAEIGSNIKNLMEDFQKKKPKEQQKLESIADMKAFVENYPQFKKMSGTVSKHVTVVGELSRLVSERNLLEVSEVEQELACQNDHSSALQNIKRLLQNPKVTEFDAARLVMLYALHYERHSSNSLPGLMMDLRNKGVSEKYRKLVSAVVEYGGKRVRGSDLFSPKDAVAITKQFLKGLKGVENVYTQHQPFLHETLDHLIKGRLKENLYPYLGPSTLRDRPQDIIVFVIGGATYEEALTVYNLNRTTPGVRIVLGGTTVHNTKSFLEEVLASGLHSRSKESSQVTSRSASRR [VPS45]	49.6	49.9	-0.166	0.581	1.21	0.0246
MNWELLLWLLVLCALLLLLVQLLRFLRADGDLTLLWAEWQGRRPEWELTDMVVWVTGASSGIGEELAYQLSKLGVSLVLSARRVHELERVKRRCLENGNLKEKDILVLPLDLTDTGSHEAATKAVLQEFGRIDILVNNGGMSQRSLCMDTSLDVYRKLIELNYLGTVSLTKCVLPHMIERKQGKIVTVNSILGIISVPLSIGYCASKHALRGFFNGLRTELATYPGIIVSNICPGPVQSNIVENSLAGEVTKTIGNNGDQSHKMTTSRCVRLMLISMANDLKEVWISEQPFLLVTYLWQYMPTWAWWITNKMGKKRIENFKSGVDADSSYFKIFKTKHD [DHRS7]	56.6	56.6	-0.0912	-1.54	-1.34	-0.297
MNYDSQQPPLPPLPYAGCRRASGFPALGRGGTVPVGVWGGAGQGREGRSWGEGPRGPGLGRRDLSSADPAVLGATMESRCYGCAVKFTLFKKEYGCKNCGRAFCSGCLSFSAAVPRTGNTQQKVCKQCHEVLTRGSSANASKWSPPQNYKKRVAALEAKQKPSTSQSQGLTRQDQMIAERLARLRQENKPKLVPSQAEIEARLAALKDERQGSIPSTQEMEARLAALQGRVLPSQTPQPAHHTPDTRTQAQQTQDLLTQLAAEVAIDESWKGGGPAASLQNDLNQGGPGSTNSKRQANWSLEEEKSRLLAEAALELREENTRQERILALAKRLAMLRGQDPERVTLQDYRLPDSDDDEDEETAIQRVLQQLTEEASLDEASGFNIPAEQASRPWTQPRGAEPEAQDVDPRPEAEEEELPWCCICNEDATLRCAGCDGDLFCARCFREGHDAFELKEHQTSAYSPPRAGQEH [ZFYVE19]	54.2	52.9	-0.237	-2.39	-1.86	0.428
MON2	49.8	50.1	-0.108	-0.177	0.256	-0.103
